For this data set, the target named is T1, VPA0041-His (Vibrio parahaemolyticus RIMD 2210633) (UniProt Q87K57).
T1 sequence: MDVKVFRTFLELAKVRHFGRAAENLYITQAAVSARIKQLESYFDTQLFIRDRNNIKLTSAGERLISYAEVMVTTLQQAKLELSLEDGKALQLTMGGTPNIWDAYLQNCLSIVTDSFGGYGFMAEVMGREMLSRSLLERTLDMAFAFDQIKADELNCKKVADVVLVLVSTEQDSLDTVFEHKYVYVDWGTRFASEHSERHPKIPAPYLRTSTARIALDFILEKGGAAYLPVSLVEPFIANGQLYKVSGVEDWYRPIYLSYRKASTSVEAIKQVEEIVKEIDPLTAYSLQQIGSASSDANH
Description: EMSA. The conditions noted are these: EMSA: 20 uL, 10 ng probe (15 ng in Fig 5 legend), 1 ug poly(dI:dC), 4 uL 5x binding buffer (10 mM NaCl, 0.1 mM DTT, 0.1 mM EDTA, 10 mM Tris, pH 7.4), 25 C …. On the technique in general: In EMSA bound probe runs differently from free probe, usually more slowly.
For the sequence “CATCTTAGTCTCCTTAGTTTATCACTATTTCTTTCAGGCCTTGGGATATTCCCTAGTCACTAACTAGAGGCGGTCGCTTGCCACTAATGATTAATTTGAAAATTAAAAATTTTCTAAAAAAGATCAAAATTGATGATTTTTAGTGACTTGCATTCCACTAAGTTGGGGTTTGCTACCGTTTTAGCGTTAGTTTCCGATGTGCTTTGATCGGCATCGTCGACCTGCAGGCA (double strand) [vpa1548 promoter (promoter-1)]”, the binding result is “binds”.

As to “CATGCATCTTTCCTTACAGTCGGCTCGAATACGCCAAGATACAAACAAGATACATCGTCGACCTGCAGGCA (double strand) [vpa0264 promoter-3]”, the binding result is recorded as “no binding”.

Consider “TGCCTGCAGGTCGACGATAGACATACTTTCAAGGCATAGAGTTACGCCAATTACCAATGAGAGAGGGAGTAAGCTCGTG (double strand) [vpa1550 promoter-4]”, for which the binding entry was “binds”.

In the case of “TGCCTGCAGGTCGACGATCAAGTCAATGTTTTAAAAGAATATTCAAGTTAGGCACGTATCTTGCGATAAGACATACTTTCAAGGCATAGAGTTACGCCAATTACCAATGAGAGAGGGAGTAAGCTCGTG (double strand) [vpa1550 promoter-3]”, the binding result is “binds”.

For the sequence “TGCCTGCAGGTCGACGATGGAACACATAAGGTGGAAAATACACTTCCTCTCAAATTTAAATAGTATCGCAAGTCAATGTTTTAAAAGAATATTCAAGTTAGGCACGTATCTTGCGATAAGACATACTTTCAAGGCATAGAGTTACGCCAATTACCAATGAGAGAGGGAGTAAGCTCGTG (double strand) [vpa1550 promoter-2]”, the binding entry was “binds”.

Consider “TGCCTGCAGGTCGACGATGTTTGTCCTGTCGAAAGAATTCCTAATAACAGTATCCACTTTGAGGAAATTAGAGTTTTCCCCCTAATTTTTTTGCTTTCCGTAAACCGGAAGTTTGGTTTCCACTCTTGTTTGTAAGTCATTGATAAATATAAATAAAATTTATGGCACGTATCTTGTTTGTATCTTGGCGTATTCGAGCCGACTGTAAGGAAAGATGCATG (double strand) [vpa0264 promoter]”, for which the binding result is recorded as “binds”.

As for “TGCCTGCAGGTCGACGATTAGAGTTTTCCCCCTAATTTTTTTGCTTTCCGTAAACCGGAAGTTTGGTTTCCACTCTTGTTTGTAAGTCATTGATAAATATAAATAAAATTTATGGCACGTATCTTGTTTGTATCTTGGCGTATTCGAGCCGACTGTAAGGAAAGATGCATG (double strand) [vpa0264 promoter-1]”, the binding entry is reported as “binds”.

Consider “TGCCTGCAGGTCGACGATTCCACTCTTGTTTGTAAGTCATTGATAAATATAAATAAAATTTATGGCACGTATCTTGTTTGTATCTTGGCGTATTCGAGCCGACTGTAAGGAAAGATGCATG (double strand) [vpa0264 promoter-2]”, for which the binding result is “binds”.

For “TGCCTGCAGGTCGACGATTTAGTCGCCTTGTCTTATAGGGAAACACTAGATGTTTTCGAGAGGAAGGCGGAACACATAAGGTGGAAAATACACTTCCTCTCAAATTTAAATAGTATCGCAAGTCAATGTTTTAAAAGAATATTCAAGTTAGGCACGTATCTTGCGATAAGACATACTTTCAAGGCATAGAGTTACGCCAATTACCAATGAGAGAGGGAGTAAGCTCGTG (double strand) [vpa1550 promoter (promoter-1)]”, the binding entry was “binds”.
